Patent US20220105194A1, “CONJUGATE COMPRISING LIGAND, SPACER, PEPTIDE LINKER, AND BIOMOLECULE” (ASTELLAS PHARMA INC., priority 2019, published 2022)

Key:
[1] = target: human cancer-specific MUC1; assay: Example 6-2: ELISA binding activity of anti-human MUC1 antibody Fab^5 fragment conjugates; conditions: immobilized human cancer-specific MUC1 peptide, single runs of P10-2, read-out: EC50 value (nM) for each of 3 runs
Procedure: Each anti-human MUC1 antibody Fab^5 fragment conjugate prepared by the method of Example 5 was subjected to ELISA to evaluate the binding activity thereof to human cancer-specific MUC1. In the present test, 20×PBS/Tween 20 Buffer (Thermo Fisher Scientific Inc., 28352) diluted 20-fold with distilled water was used as a wash liquid. In addition, for bovine serum albumin (BSA) used in the present test, 30% Bovine Serum Albumin solution (Sigma-Aldrich, Inc., A9576-50ML) was added in an appropriate proportion for use. A human cancer-specific MUC1 peptide (PTL 1) at 0.5 μmol/L was added to a Nunc MaxiSorp White 384 plate (Nunc, 460372) at 30 μL per well, and the plate was incubated overnight at 4° C. for immobilization. The MUC1 peptide was removed by reverse centrifugation, and then blocking was carried out by adding a PBS/Tween 20 buffer containing 5.0% BSA. […] The substrate was incubated at room temperature for 15 minutes, and then a signal value thereof was measured using an Envision counter (PerkinElmer, Inc.).
The test for each antibody was carried out in duplicate, and the EC50 value was calculated using a 4-parameter logistic curve model.

[2] = target: human cancer-specific MUC1; assay: Example 6-1: ELISA binding activity of anti-human MUC1 antibody Fab^5 fragment conjugates; conditions: immobilized human cancer-specific MUC1 peptide, single runs of P10-2, read-out: EC50 value (nM) for each of 3 runs
[3] = test system: human breast cancer cell line MDA-MB-468; assay: Example 8: amount of tumor accumulation of Gd-labeled conjugates (tumor-bearing mice); conditions: MDA-MB-468 tumor-bearing mice, 24 hours; control conjugate Ex-No. 108, mean of 2 runs
Procedure: (§1) A Gd-labeled conjugate of the conjugate containing a peptide linker produced in one of the above Examples was administered from the tail vein of the tumor-bearing mice so that the protein mass was 0.02 mg (100 μL) per animal. As the tumor-bearing mice used in the present Example, mice (BALB/c nu/nu) that were in a tumor-bearing state brought about by transplanting human breast cancer cell line MDA-MB-468 (ATCC(registered trademark); HTB-132) at 5.0×10^6 cells/mouse subcutaneously on the back before administration of the sample were used. 24 hours after administration of the sample, the mice were sacrificed, the kidneys and the tumor were removed, and the amounts of Gd in the kidneys and in the tumor were measured using ICP-MS. The present test was carried out in 3 cases in each group, and the mean value of the 3 cases was calculated. The amount of Gd contained per kidney after administration was shown as a percentage of the amount of Gd administered (% of dose/tissue), and the amount of Gd contained per g of tumor tissue was shown as a percentage of the total amount of Gd administered (% of dose/g).

[4] = set-up: species or system mice (BALB/c or BALB/c nu/nu); conditions: mouse, in vivo
Procedure: A Gd-labeled conjugate of the conjugate containing a peptide linker produced in one of the above Examples was administered from the tail vein of mice (BALB/c or BALB/c nu/nu) so that the protein mass was 0.02 mg (100 μL) per animal. After about 24 hours, the mice were sacrificed and the kidneys were removed, and the amount of Gd in the kidneys was measured using ICP-MS. The present test was carried out in 3 cases in each group, the mean value of the 3 cases was calculated, and the amount of Gd contained per kidney after administration was shown as a percentage (% of dose/tissue) of the total amount of Gd administered.
Based on the amount of Gd contained in the kidneys of the control conjugate, the proportion of decrease in the amount of Gd contained in the kidneys of each of the conjugates having a peptide linker was determined.

[5] = set-up: species or system mice (BALB/c nu/nu); conditions: mouse, in vivo
Procedure: as §1

Sequence of human cancer-specific MUC1 (P15941 136-155 limits assumed): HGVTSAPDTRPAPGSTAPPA

Row | Molecule | EC50 [1] [nM] | EC50 [2] [nM] | Amount of tumor accumulation (% of dose/g), Mean [3] | Renal residual amount (normal mice), Mean (% of dose/tissue) [4] | Renal residual amount (% of dose/tissue), Mean [5]
1 | P10-2: anti-human MUC1 antibody Fab fragment disclosed in International Publication WO2018/092885 (antibody) heavy: QVQLVQSGAEVKKPGASVKVSCKASGYTFTNYGLSWVRQAPGQGLEWMGENHPGSGIIYHNEKFRGRVTLTADRSTSTAYMELSSLRSEDTAVYYCARSSGTRGFDYWGQGTLVTVSSASTKGPSVFPLAPSSKSTSGGTAALGCLVKDYFPEPVTVSWNSGALTSGVHTFPAVLQSSGLYSLSSVVTVPSSSLGTQTYICNVNHKPSNTKVDKKVEPKSCD light: DVVMTQTPLSLSVTPGQPASISCRSSQSIVHSNGNTYLEWYLQKPGQSPQLLIYRVSNRFSGVPDRFSGSGSGTDFTLKISRVEAEDVGVYYCFQGSHGPWTFGQGTKLEIKRTVAAPSVFIFPPSDEQLKSGTASVVCLLNNFYPREAKVQWKVDNALQSGNSQESVTEQDSKDSTYSLSSTLTLSKADYEKHKVYACEVTHQGLSSPVTKSFNRGEC | 0.06 | 0.06 | – | – | –
2 | Ex-No 108 (conjugate) heavy: QVQLVQSGAEVKKPGASVKVSCKASGYTFTNYGLSWVRQAPGQGLEWMGENHPGSGIIYHNEKFRGRVTLTADRSTSTAYMELSSLRSEDTAVYYCARSSGTRGFDYWGQGTLVTVSSASTKGPSVFPLAPSSKSTSGGTAALGCLVKDYFPEPVTVSWNSGALTSGVHTFPAVLQSSGLYSLSSVVTVPSSSLGTQTYICNVNHKPSNTKVDKKVEPKSCD light: DVVMTQTPLSLSVTPGQPASISCRSSQSIVHSNGNTYLEWYLQKPGQSPQLLIYRVSNRFSGVPDRFSGSGSGTDFTLKISRVEAEDVGVYYCFQGSHGPWTFGQGTKLEIKRTVAAPSVFIFPPSDEQLKSGTASVVCLLNNFYPREAKVQWKVDNALQSGNSQESVTEQDSKDSTYSLSSTLTLSKADYEKHKVYACEVTHQGLSSPVTKSFNRGEC | – | – | 0.92 % of dose/g | 33.00 % of dose/tissue | 34.67 % of dose/tissue
